This note sets out measurements from patent publication US20200024360A1 (Janssen / Centocor, published 2020).

The term EC50 denotes the midpoint of the concentration-response curve. High values mean weaker potency, low ones greater potency. In general, Kd refers to the concentration at which binding is half-saturated. A word on the koff: it is the rate constant with which the complex falls apart. Usually kon stands for the second-order rate constant of association.

For assay [1], the target named is T1, chimpanzee PSMA, full length (Pan troglodytes, UniProt Q04609 1-750 (human entry)).
T1 construct: On transfected HEK293F cells; also called chimp PSMA; H2Q3K5_PANTR
T1 chain: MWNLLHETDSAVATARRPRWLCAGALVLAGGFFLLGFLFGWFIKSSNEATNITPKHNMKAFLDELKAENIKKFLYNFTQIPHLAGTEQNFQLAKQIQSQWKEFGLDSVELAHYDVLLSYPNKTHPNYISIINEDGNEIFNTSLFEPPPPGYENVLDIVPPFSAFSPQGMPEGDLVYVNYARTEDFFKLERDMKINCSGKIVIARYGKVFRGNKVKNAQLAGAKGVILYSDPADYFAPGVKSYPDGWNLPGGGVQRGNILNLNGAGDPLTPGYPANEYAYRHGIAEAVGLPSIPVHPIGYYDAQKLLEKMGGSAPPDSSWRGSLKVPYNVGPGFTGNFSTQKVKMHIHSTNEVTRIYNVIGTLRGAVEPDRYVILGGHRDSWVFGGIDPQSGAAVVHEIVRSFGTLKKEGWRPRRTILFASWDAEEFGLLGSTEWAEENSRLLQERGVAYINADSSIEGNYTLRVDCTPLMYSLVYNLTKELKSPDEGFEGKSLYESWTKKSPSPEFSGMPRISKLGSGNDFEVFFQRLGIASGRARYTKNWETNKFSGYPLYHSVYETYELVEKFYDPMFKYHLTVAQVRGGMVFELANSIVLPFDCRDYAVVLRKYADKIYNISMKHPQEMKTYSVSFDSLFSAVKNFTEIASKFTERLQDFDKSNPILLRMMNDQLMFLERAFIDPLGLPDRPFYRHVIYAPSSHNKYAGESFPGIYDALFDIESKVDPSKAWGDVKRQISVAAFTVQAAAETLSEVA
Kind of assay: FACS, whole cell binding, chimp PSMA HEK. The procedure:
PSMA×CD3 bispecific antibodies were tested for binding to PSMA positive cell lines LNCAP, human PSMA-HEK, Chimpanzee-PSMA-HEK and Cynomolgous monkey PSMA-HEK. To assess the binding capabilities of the PSMA bispecific antibodies, the cell-binding assay was utilized (described previously). Briefly, PSMA expressing tumor cells are bound by bispecific antibodies at known concentrations and the bound antibody is detected by an anti-human kappa light chain PE conjugated detection reagent (Invitrogen). The Mean Fluorescents Intensity (MFI) is the measure of bound bispecific antibody. The MFI is converted to a relative EC₅₀. EC₅₀ is a commonly used dose-response curve, where the half maximal effective concentration or the EC₅₀ point is defined as the inflection point of the curve. EC₅₀ s were determined by measuring cell bound bispecific and known concentrations. […] The dose response curves were then diluted down to that of background or no bispecific binding. The inflection point of this curve reflects the EC₅₀ point. The calculated EC₅₀ is determined by taking the ug/ml amount of bispecific antibody at the EC₅₀ point and converting it to a molarity value based on the MW of the bispecific antibody. Bispecific antibodies were normalized for protein concentration and then incubated with the same number of cells expressing either human or cyno PSMA. The MFI at each concentration was collected by flow cytometry and plotted as a function of concentration. Data was transformed via log 10 and then plotted. Nonlinear regression of binding curves was done to determine EC₅₀ s. These relative values were used for ranking PSMA binding to target cells.
On the technique in general: In flow cytometry, cells or beads pass a laser one at a time.

For assay [2], the target named is T2, recombinant chimpanzee PSMA extracellular domain (ECD) protein (Pan troglodytes, UniProt Q04609 44-750 (human entry)).
T2 construct: also called Chimp PSMA ECD; PSMG8
T2 chain: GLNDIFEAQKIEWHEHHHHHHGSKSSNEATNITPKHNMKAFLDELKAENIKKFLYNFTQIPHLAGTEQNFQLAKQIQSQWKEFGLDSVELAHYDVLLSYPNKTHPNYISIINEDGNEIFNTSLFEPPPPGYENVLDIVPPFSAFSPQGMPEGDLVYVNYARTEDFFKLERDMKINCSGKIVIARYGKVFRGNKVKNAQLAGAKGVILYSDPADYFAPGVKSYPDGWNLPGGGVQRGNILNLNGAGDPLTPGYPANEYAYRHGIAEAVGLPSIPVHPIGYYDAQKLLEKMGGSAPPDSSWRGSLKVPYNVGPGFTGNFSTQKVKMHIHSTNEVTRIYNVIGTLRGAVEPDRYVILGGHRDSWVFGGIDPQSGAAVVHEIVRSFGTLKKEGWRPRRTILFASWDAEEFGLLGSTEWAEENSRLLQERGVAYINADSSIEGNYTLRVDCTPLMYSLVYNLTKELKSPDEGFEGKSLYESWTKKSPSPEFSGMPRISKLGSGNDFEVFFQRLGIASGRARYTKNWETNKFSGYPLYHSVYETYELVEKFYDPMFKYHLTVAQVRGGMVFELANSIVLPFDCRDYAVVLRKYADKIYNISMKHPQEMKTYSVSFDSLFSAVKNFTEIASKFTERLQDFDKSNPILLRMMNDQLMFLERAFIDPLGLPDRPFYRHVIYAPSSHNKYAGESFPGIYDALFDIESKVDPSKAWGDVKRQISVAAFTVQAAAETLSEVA
Kind of assay: SPR ProteOn, bsAb captured by anti-Fc. The method, then: The interactions of PSMA×CD3 bispecific mAbs with target (recombinant Chimp, PSMA) were studied by Surface Plasmon Resonance (SPR) using a ProteOn XPR36 system (BioRad). […] Approximately 4400 RU (response units) of anti-Human IgG Fc antibodies were immobilized. The kinetic experiments were performed at 25° C. in running buffer (DPBS+0.03% P20+100 μg/ml BSA). […] The association phase was monitored for 3 minutes at 50 μL/min, then followed by 15 minutes of buffer flow (dissociation phase). The chip surface was regenerated with two 18 second pulses of 100 mM Phosphoric acid (H₃PO₄, Sigma, cat #7961) at 100 μL/min.
The collected data were processed using ProteOn Manager software. First, the data was corrected for background using inter-spots. Then, double reference subtraction of the data was performed by using the buffer injection for analyte injections. The kinetic analysis of the data was performed using a Langmuir 1:1 binding model.

B1: PS3B27 (bispecific antibody, human IgG4 S228P, kappa, lambda, F234A L235A)
heavy 1: not shown
light 1: not shown
heavy 2: EVQLVESGGGLVQPGGSLRLSCAASGFTFNTYAMNWVRQAPGKGLEWVARIRSKYNNYATYYAASVKGRFTISRDDSKNSLYLQMNSLKTEDTAVYYCARHGNFGNSYVSWFAYWGQGTLVTVSSASTKGPSVFPLAPCSRSTSESTAALGCLVKDYFPEPVTVSWNSGALTSGVHTFPAVLQSSGLYSLSSVVTVPSSSLGTKTYTCNVDHKPSNTKVDKRVESKYGPPCPPCPAPEAAGGPSVFLFPPKPKDTLMISRTPEVTCVVVDVSQEDPEVQFNWYVDGVEVHNAKTKPREEQFNSTYRVVSVLTVLHQDWLNGKEYKCKVSNKGLPSSIEKTISKAKGQPREPQVYTLPPSQEEMTKNQVSLTCLVKGFYPSDIAVEWESNGQPENNYKTTPPVLDSDGSFLLYSKLTVDKSRWQEGNVFSCSVMHEALHNHYTQKSLSLSLGK
light 2: QTVVTQEPSLTVSPGGTVTLTCRSSTGAVTTSNYANWVQQKPGQAPRGLIGGTNKRAPGTPARFSGSLLGGKAALTLSGVQPEDEAEYYCALWYSNLWVFGGGTKLTVLGQPKAAPSVTLFPPSSEELQANKATLVCLISDFYPGAVTVAWKADSSPVKAGVETTTPSKQSNNKYAASSYLSLTPEQWKSHRSYSCQVTHEGSTVEKTVAPTECS
notes: IgG4 PAA; PSMA arm chains first, then CD3 arm (F405L, R409K); also called PSMB127 x CD3B219; PS2B27
Molecule B1 displayed an EC50 in assay [1] of 3.24 µg/mL. For the same molecule, in assay [2], the Kd was found to be 10.4 nM, the koff came to 0.00176 s⁻¹ and the on-rate (kon) turned out to be 170000 M⁻¹ s⁻¹.

B2: PS3B22 (bispecific antibody, human IgG4 S228P, kappa, lambda, F234A L235A)
heavy 1: not shown
light 1: DIQMTQSPSSLSASVGDRVTITCRASQSIDRWLNWYQQKPGKAPKLLIYAASSLQSGVPSRFSGSGSGTDFTLTISSLQPEDFATYYCQQSPRYPLTFGQGTKVEIKRTVAAPSVFIFPPSDEQLKSGTASVVCLLNNFYPREAKVQWKVDNALQSGNSQESVTEQDSKDSTYSLSSTLTLSKADYEKHKVYACEVTHQGLSSPVTKSFNRGEC
heavy 2: B1 heavy 2
light 2: B1 light 2
notes: IgG4 PAA; PSMA arm chains first, then CD3 arm (F405L, R409K); also called PSMB122 x CD3B219; PSB22
In the case of B2, in assay [1], the response was half-maximal at 3.02 µg/mL (EC50). Besides, in assay [2], the Kd was found to be 19 nM, the koff came to 0.00124 s⁻¹ and the on-rate constant (kon) was determined as 65100 M⁻¹ s⁻¹.

B3: PS3B30 (bispecific antibody, human IgG4 S228P, kappa, lambda, F234A L235A)
heavy 1: not shown
light 1: not shown
heavy 2: B1 heavy 2
light 2: B1 light 2
notes: IgG4 PAA; PSMA arm chains first, then CD3 arm (F405L, R409K); also called PSMB130 x CD3B219
Molecule B3 showed a half-maximal effective concentration (EC50) in assay [1] of 3.29 µg/mL. Moreover, in assay [2], the equilibrium dissociation constant (Kd) was determined as 22.4 nM, the koff was 0.00165 s⁻¹ and the kon is 73400 M⁻¹ s⁻¹.

B4: PS3B24 (bispecific antibody, human IgG4 S228P, kappa, lambda, F234A L235A)
heavy 1: not shown
light 1: not shown
heavy 2: B1 heavy 2
light 2: B1 light 2
notes: IgG4 PAA; PSMA arm chains first, then CD3 arm (F405L, R409K); also called PSMB124 x CD3B219
Regarding B4, in assay [1], the midpoint of the response, the EC50, lay at 1.1 µg/mL. Besides, in assay [2], the Kd was 40.3 nM, the koff came to 0.000252 s⁻¹ and the on-rate constant (kon) stood at 6260 M⁻¹ s⁻¹.

B5: PS3B23 (bispecific antibody, human IgG4 S228P, kappa, lambda, F234A L235A)
heavy 1: not shown
light 1: not shown
heavy 2: B1 heavy 2
light 2: B1 light 2
notes: IgG4 PAA; PSMA arm chains first, then CD3 arm (F405L, R409K); also called PSMB123 x CD3B219
B5 yielded a concentration giving a half-maximal response (EC50) in assay [1] of 0.88 µg/mL. For the same molecule, in assay [2], the dissociation constant Kd is 1.8 nM, the koff was found to be 0.00176 s⁻¹ and the kon was found to be 989000 M⁻¹ s⁻¹.

B6: PS3B19 (bispecific antibody, human IgG4 S228P, kappa, lambda, F234A L235A)
heavy 1: not shown
light 1: not shown
heavy 2: B1 heavy 2
light 2: B1 light 2
notes: IgG4 PAA; PSMA arm chains first, then CD3 arm (F405L, R409K); also called PSMB119 x CD3B219
B6: the EC50 in assay [1] is 5.1 µg/mL. For the same molecule, in assay [2], the Kd was found to be 23.6 nM, the koff stood at 0.000298 s⁻¹ and the kon amounted to 12600 M⁻¹ s⁻¹.

B7: PS3B28 (bispecific antibody, human IgG4 S228P, kappa, lambda, F234A L235A)
heavy 1: not shown
light 1: not shown
heavy 2: B1 heavy 2
light 2: B1 light 2
notes: IgG4 PAA; PSMA arm chains first, then CD3 arm (F405L, R409K); also called PSMB128 x CD3B219
In assay [1], B7 showed an EC50 of 1.01 µg/mL. Besides, in assay [2], the Kd was determined as 17.4 nM, the koff is 0.00233 s⁻¹ and the on-rate constant (kon) was 134000 M⁻¹ s⁻¹.

B8: PS3B25 (bispecific antibody, human IgG4 S228P, kappa, lambda, F234A L235A)
heavy 1: not shown
light 1: not shown
heavy 2: B1 heavy 2
light 2: B1 light 2
notes: IgG4 PAA; also called PSMB87 x CD3B219
With B8, in assay [2], the Kd is 5.5 nM, the off-rate (koff) came out at 0.00106 s⁻¹ and the kon is 195000 M⁻¹ s⁻¹.

B9: PS3B20 (bispecific antibody, human IgG4 S228P, kappa, lambda, F234A L235A)
heavy 1: not shown
light 1: not shown
heavy 2: B1 heavy 2
light 2: B1 light 2
notes: IgG4 PAA; PSMA arm chains first, then CD3 arm (F405L, R409K); also called PSMB120 x CD3B219
In turn, B9 came in with an EC50 in assay [1] of 3.33 µg/mL. For the same molecule, in assay [2], the Kd is 21.4 nM, the koff came to 0.000378 s⁻¹ and the kon came to 17600 M⁻¹ s⁻¹.
